In one assay the target is T1, human 4-1BB (human, UniProt Q07011 24-255).
T1 construct: whole, on cells; Expressed on CHO-K1/hu 4-1BB cells (GenScript, M00538); also called CD137; TNFRSF9
Put plainly: flow cytometry, CHO-K1/hu 4-1BB cells.

For another assay, the target named is T2, human PD-L1 (human, UniProt Q9NZQ7 19-290).
T2 construct: whole, on cells; Expressed on CHO-K1/hPD-L1 cells (GenScript, M00543); also called CD274; B7-H1
Put plainly: flow cytometry, CHO-K1/hPD-L1 cells. In general terms: Flow cytometry measures light scatter and fluorescence of single cells or particles in a stream.

T1 sequence (Q07011 24-255): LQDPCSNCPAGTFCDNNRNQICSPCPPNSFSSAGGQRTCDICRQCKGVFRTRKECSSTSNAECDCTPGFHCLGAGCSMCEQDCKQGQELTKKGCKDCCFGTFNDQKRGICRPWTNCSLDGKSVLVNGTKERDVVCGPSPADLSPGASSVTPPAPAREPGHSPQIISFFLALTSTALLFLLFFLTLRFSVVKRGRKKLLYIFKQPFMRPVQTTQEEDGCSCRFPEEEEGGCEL
T2 sequence (Q9NZQ7 19-290): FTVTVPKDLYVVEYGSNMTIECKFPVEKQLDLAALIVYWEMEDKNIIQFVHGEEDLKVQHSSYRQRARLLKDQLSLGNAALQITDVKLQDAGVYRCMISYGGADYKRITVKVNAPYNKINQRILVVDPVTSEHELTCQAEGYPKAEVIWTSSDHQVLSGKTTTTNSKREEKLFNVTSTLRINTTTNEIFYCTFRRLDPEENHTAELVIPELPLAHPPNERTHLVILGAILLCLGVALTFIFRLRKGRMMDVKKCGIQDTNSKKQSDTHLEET
Description for human 4-1BB: The binding ability of the binding protein to a CHO-K1 cell line CHO-K1/hu 4-1BB (GenScript, M00538) highly expressing human 4-1BB and a CHO-K1 cell line CHO-K1/cyno 4-1BB (GenScript, M00569) highly expressing cynomolgus monkey 4-1BB were determined by flow cytometry FACS. Specifically, the cells were digested and resuspended in a complete medium, and the cell density was adjusted to 2×10⁶ cells/mL. […] The cells were incubated at 4° C. for 1 h away from light. Then, the cells in each well were rinsed twice with 100 μL of pre-cooled FACS buffer (PBS buffer containing 0.5% BSA) and centrifuged at 500 g at 4° C. for 5 min, and then the supernatant was discarded. […] Then, the cells in each well were then rinsed twice with 200 μL of pre-cooled FACS buffer and centrifuged at 500 g at 4° C. for 5 min, and then the supernatant was discarded. Finally, a pre-cooled FACS buffer was added at 200 μL/well to resuspend the cells. Fluorescence signal values were read using a BD FACS CANTOII flow cytometer or an ACEA NovoCyte flow cytometer, and the data were processed and analyzed using FlowJo v10 (FlowJo, LLC) software.

B1: PR003562 (bispecific antibody, human IgG1, kappa, L234A L235A)
light: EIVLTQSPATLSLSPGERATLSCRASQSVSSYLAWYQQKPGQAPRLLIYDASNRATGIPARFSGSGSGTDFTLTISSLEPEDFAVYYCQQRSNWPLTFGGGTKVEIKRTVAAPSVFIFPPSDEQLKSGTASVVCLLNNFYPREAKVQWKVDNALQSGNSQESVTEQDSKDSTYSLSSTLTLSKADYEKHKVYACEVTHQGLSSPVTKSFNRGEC
heavy: EVQLLESGGGLVQPGGSLRLSCAASGFTFSSFVMSWVRQAPGKGLEWVSTISGSGRSTYYADSVKGRFTISRDNSKNTLHLQMNSLRAEDTAVYYCAKDAAAAGTKFDYWGQGTLVTVSSASTKGPSVFPLAPSSKSTSGGTAALGCLVKDYFPEPVTVSWNSGALTSGVHTFPAVLQSSGLYSLSSVVTVPSSSLGTQTYICNVNHKPSNTKVDKKVEPKSCDKTHTCPPCPAPEAAGGPSVFLFPPKPKDTLMISRTPEVTCVVVDVSHEDPEVKFNWYVDGVEVHNAKTKPREEQYNSTYRVVSVLTVLHQDWLNGKEYKCKVSNKALGAPIEKTISKAKGQPREPQVYTLPPSREEMTKNQVSLTCLVKGFYPSDIAVEWESNGQPENNYKTTPPVLDSDGSFFLYSKLTVDKSRWQQGNVFSCSVMHEALHNHYTQKSLSLSPGEPKSSDKTHTPPPPPRTEVQLLESGGGLVQLGGSLRLSCAASGFTFSRYAMTWVRQAPEKGLEWVSSISGSGDDTYYGDSVKGRFTISRDNSQNTVYLQMNSLRAEDTAVYFCAKEKAGTTGDYYYNVDVWGQGTTVTVSS
notes: Structure 1, IgG-VH; CLDN18.2 Fab from PR002726, 4-1BB VH from PR001758; linker H1_15-RT; human IgG1 (AAG); also called CLDN18.2×4-1BB bispecific antibody molecule
For the molecule B1, in the assay with human 4-1BB, the binding result is recorded as “binds”.

B2: PR004270 (bispecific antibody, human IgG1)
chain 1: EVQLVESGGGLVQPGGSLRLSCAASGFTFSSYWMSWVRQAPGKGLEWVANIKQEGSEKYYVDSVKGRFTISRDNAKNSLYLQMNSLRAEDTAVYYCARDRAVAGAFDIWGQGTMVTVSSASTKGPSVFPLAPSSKSTSGGTAALGCLVKDYFPEPVTVSWNSGALTSGVHTFPAVLQSSGLYSLSSVVTVPSSSLGTQTYICNVNHKPSNTKVDKKVEPKSC
chain 2: not shown
notes: Structure 3, Fab(CL)-VH-Fc (Fab-HCAb) tetravalent symmetric; PD-L1 Fab from PR000265, 4-1BB VH from PR001760; L1 H1_15, L2 human IgG1 hinge (C220S); human IgG1 (LALA); also called PD-L1×4-1BB bispecific antibody molecule with the Fab-HCAb symmetric structure
As to B2, the binding result with human PD-L1 was “binds”.

B3: PR007164 (bispecific antibody, human IgG1)
chain 1: B2 chain 1
chain 2: not shown
notes: Structure 3, Fab(CL)-VH-Fc (Fab-HCAb); PD-L1 Fab from PR000265, 4-1BB VH from PR001760; no first linker, second linker human IgG1 hinge (C220S); human IgG1 (LALA); also called PD-L1×4-1BB bispecific antibody molecule, structure (3)
Regarding B3, in the assay with human PD-L1, the binding result was “binds”.

B4: PR003563 (bispecific antibody, human IgG1, kappa, L234A L235A)
light: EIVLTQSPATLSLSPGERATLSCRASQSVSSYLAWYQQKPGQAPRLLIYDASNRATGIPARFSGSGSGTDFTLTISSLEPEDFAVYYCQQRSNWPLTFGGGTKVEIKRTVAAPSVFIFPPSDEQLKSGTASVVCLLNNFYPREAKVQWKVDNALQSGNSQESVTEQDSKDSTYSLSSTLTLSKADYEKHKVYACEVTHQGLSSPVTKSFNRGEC
heavy: EVQLLESGGGLVQPGGSLRLSCAASGFTFSSFVMSWVRQAPGKGLEWVSTISGSGRSTYYADSVKGRFTISRDNSKNTLHLQMNSLRAEDTAVYYCAKDAAAAGTKFDYWGQGTLVTVSSASTKGPSVFPLAPSSKSTSGGTAALGCLVKDYFPEPVTVSWNSGALTSGVHTFPAVLQSSGLYSLSSVVTVPSSSLGTQTYICNVNHKPSNTKVDKKVEPKSCDKTHTCPPCPAPEAAGGPSVFLFPPKPKDTLMISRTPEVTCVVVDVSHEDPEVKFNWYVDGVEVHNAKTKPREEQYNSTYRVVSVLTVLHQDWLNGKEYKCKVSNKALGAPIEKTISKAKGQPREPQVYTLPPSREEMTKNQVSLTCLVKGFYPSDIAVEWESNGQPENNYKTTPPVLDSDGSFFLYSKLTVDKSRWQQGNVFSCSVMHEALHNHYTQKSLSLSPGEPKSSDKTHTPPPPPRTEVQLVESGGGVVQPGGSLRLSCAASGFTFSNYAMTWVRQAPEKGLEWVSSISGSGVSTYYADSVKGRFTISRDNSKNTLYLQMTRLTAEDTAVYFCAKEGSSETDDHYYNVDVWGQGTTVTVSS
notes: Structure 1, IgG-VH; CLDN18.2 Fab from PR002726, 4-1BB VH from PR001760; linker H1_15-RT; human IgG1 (AAG); also called CLDN18.2×4-1BB bispecific antibody molecule
With B4, in the assay with human 4-1BB, the binding result was “binds”.

B5: PR003564 (bispecific antibody, human IgG1, kappa, L234A L235A)
light: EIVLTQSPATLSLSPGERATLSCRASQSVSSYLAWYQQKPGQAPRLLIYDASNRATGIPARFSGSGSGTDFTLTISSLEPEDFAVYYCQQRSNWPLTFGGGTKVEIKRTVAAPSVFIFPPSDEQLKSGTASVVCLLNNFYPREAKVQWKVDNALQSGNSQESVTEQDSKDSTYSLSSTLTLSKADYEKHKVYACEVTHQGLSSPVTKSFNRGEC
heavy: EVQLLESGGGLVQPGGSLRLSCAASGFTFSSFVMSWVRQAPGKGLEWVSTISGSGRSTYYADSVKGRFTISRDNSKNTLHLQMNSLRAEDTAVYYCAKDAAAAGTKFDYWGQGTLVTVSSASTKGPSVFPLAPSSKSTSGGTAALGCLVKDYFPEPVTVSWNSGALTSGVHTFPAVLQSSGLYSLSSVVTVPSSSLGTQTYICNVNHKPSNTKVDKKVEPKSCDKTHTCPPCPAPEAAGGPSVFLFPPKPKDTLMISRTPEVTCVVVDVSHEDPEVKFNWYVDGVEVHNAKTKPREEQYNSTYRVVSVLTVLHQDWLNGKEYKCKVSNKALGAPIEKTISKAKGQPREPQVYTLPPSREEMTKNQVSLTCLVKGFYPSDIAVEWESNGQPENNYKTTPPVLDSDGSFFLYSKLTVDKSRWQQGNVFSCSVMHEALHNHYTQKSLSLSPGEPKSSDKTHTPPPPPRTEVQLLESGGGLVQPGGSLRLSCAASGFIFSNFAMTWVRQPPEKGLKWVSSINGSGFNTYYTDSVKGRFTISRDNSRNTLYLQMNRLTAEDTAVYFCAKEGSSETDDHYYNVDVWGQGTTVTVSS
notes: Structure 1, IgG-VH; CLDN18.2 Fab from PR002726, 4-1BB VH from PR001836; linker H1_15-RT; human IgG1 (AAG); also called CLDN18.2×4-1BB bispecific antibody molecule
B5: in the assay with human 4-1BB, the binding result was “binds”.

B6: PR000265, anti-PD-L1 91G3H5H3(D54E), hIgG1(N297A) (antibody, V domains shown)
VH: EVQLVESGGGLVQPGGSLRLSCAASGFTFSSYWMSWVRQAPGKGLEWVANIKQEGSEKYYVDSVKGRFTISRDNAKNSLYLQMNSLRAEDTAVYYCARDRAVAGAFDIWGQGTMVTVSS
VL: DIQMTQSPSTLSASVGDRVTVTCRASQSIYIWLAWYQQKPGKAPNLLIYKASSLETGVPSRFSGSGSGTEFTLTISSLQPDDFATYYCQQYYGSSRTFGQGTKVEIKR
notes: Parent monoclonal antibody of the PD-L1 end
As to B6, the binding result with human PD-L1 is listed as “binds”.

B7: PR001760, anti-4-1BB heavy-chain antibody 1016P0011G10 (antibody, human IgG1, V domains shown)
VH: EVQLVESGGGVVQPGGSLRLSCAASGFTFSNYAMTWVRQAPEKGLEWVSSISGSGVSTYYADSVKGRFTISRDNSKNTLYLQMTRLTAEDTAVYFCAKEGSSETDDHYYNVDVWGQGTTVTVSS
notes: Fully human heavy-chain antibody (HCAb), heavy chain dimer without light chains; also called anti-4-1BB HCAb antibody
In the case of B7, the binding result in the assay with human 4-1BB is listed as “binds”.

B8: PR003550 (bispecific antibody, human IgG1, kappa, L234A L235A)
light: DIQMTQSPSTLSASVGDRVTVTCRASQSIYIWLAWYQQKPGKAPNLLIYKASSLETGVPSRFSGSGSGTEFTLTISSLQPDDFATYYCQQYYGSSRTFGQGTKVEIKRTVAAPSVFIFPPSDEQLKSGTASVVCLLNNFYPREAKVQWKVDNALQSGNSQESVTEQDSKDSTYSLSSTLTLSKADYEKHKVYACEVTHQGLSSPVTKSFNRGEC
heavy: EVQLVESGGGLVQPGGSLRLSCAASGFTFSSYWMSWVRQAPGKGLEWVANIKQEGSEKYYVDSVKGRFTISRDNAKNSLYLQMNSLRAEDTAVYYCARDRAVAGAFDIWGQGTMVTVSSASTKGPSVFPLAPSSKSTSGGTAALGCLVKDYFPEPVTVSWNSGALTSGVHTFPAVLQSSGLYSLSSVVTVPSSSLGTQTYICNVNHKPSNTKVDKKVEPKSCDKTHTCPPCPAPEAAGGPSVFLFPPKPKDTLMISRTPEVTCVVVDVSHEDPEVKFNWYVDGVEVHNAKTKPREEQYNSTYRVVSVLTVLHQDWLNGKEYKCKVSNKALGAPIEKTISKAKGQPREPQVYTLPPSREEMTKNQVSLTCLVKGFYPSDIAVEWESNGQPENNYKTTPPVLDSDGSFFLYSKLTVDKSRWQQGNVFSCSVMHEALHNHYTQKSLSLSPGEPKSSDKTHTPPPPPRTEVQLVESGGGVVQPGGSLRLSCAASGFTFSNYAMTWVRQAPEKGLEWVSSISGSGVSTYYADSVKGRFTISRDNSKNTLYLQMTRLTAEDTAVYFCAKEGSSETDDHYYNVDVWGQGTTVTVSS
notes: Structure 1, IgG-VH tetravalent symmetric; PD-L1 Fab from PR000265, 4-1BB VH from PR001760; linker H1_15-RT; human IgG1 (AAG); also called PD-L1×4-1BB bispecific antibody molecule
On to B8, for which the binding result in the assay with human PD-L1 is on record as “binds”.

B9: PR007163 (bispecific antibody, human IgG1)
light: B8 light
heavy: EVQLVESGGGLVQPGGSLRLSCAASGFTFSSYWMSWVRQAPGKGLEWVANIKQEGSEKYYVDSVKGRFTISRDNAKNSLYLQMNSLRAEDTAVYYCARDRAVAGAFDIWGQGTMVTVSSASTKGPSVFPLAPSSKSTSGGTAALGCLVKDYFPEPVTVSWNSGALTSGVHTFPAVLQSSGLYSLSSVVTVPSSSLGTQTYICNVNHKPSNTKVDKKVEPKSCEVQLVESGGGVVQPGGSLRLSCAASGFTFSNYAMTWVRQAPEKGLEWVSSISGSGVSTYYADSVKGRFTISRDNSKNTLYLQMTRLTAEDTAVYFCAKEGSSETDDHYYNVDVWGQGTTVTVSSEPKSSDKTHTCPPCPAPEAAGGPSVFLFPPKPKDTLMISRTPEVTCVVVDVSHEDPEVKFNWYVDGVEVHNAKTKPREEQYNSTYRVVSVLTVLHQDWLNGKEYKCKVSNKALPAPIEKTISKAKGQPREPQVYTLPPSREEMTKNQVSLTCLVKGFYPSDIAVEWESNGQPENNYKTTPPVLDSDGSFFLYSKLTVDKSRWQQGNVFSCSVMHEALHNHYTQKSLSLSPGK
notes: Structure 4, Fab(CH1)-VH-Fc (Fab-HCAb); PD-L1 Fab from PR000265, 4-1BB VH from PR001760; no first linker, second linker human IgG1 hinge (C220S); human IgG1 (LALA); also called PD-L1×4-1BB bispecific antibody molecule, structure (4)
As for B9, the binding result in the assay with human PD-L1 was “binds”.
